Results taken from patent US20150065381A1.
“And” between values parts separate entries of the source, which are not always exact repeats. Equal entries are not always repeated.

Assays:
[1] = molecular target: HIV-1 envelope of gp160 clone B-Chronic-014.c02 (HIV-1); experiment: capture ELISA, plate 2, mAb 7.5 ug/ml
[2] = molecular target: HIV-1 envelope of gp160 clone B-Acute-010.c09 (HIV-1); experiment: capture ELISA, plate 2, mAb 7.5 ug/ml
[3] = molecular target: HIV-1 envelope clone BF-002.c08 (multiclade gp160 clone panel) (HIV-1); experiment: capture ELISA, plate 2, mAb 7.5 ug/ml
[4] = molecular target: HIV-1 JRFL envelope (HIV-1); experiment: capture ELISA, plate 2, mAb 7.5 ug/ml
[5] = molecular target: HIV-1 envelope clone G-011.c02 (multiclade gp160 clone panel) (HIV-1); experiment: capture ELISA, plate 2, mAb 7.5 ug/ml
[6] = molecular target: HIV-1 envelope clone F1-002.c11 (multiclade gp160 clone panel) (HIV-1); experiment: capture ELISA, plate 2, mAb 7.5 ug/ml
[7] = molecular target: HIV-1 envelope clone G-011.c05 (multiclade gp160 clone panel) (HIV-1); experiment: capture ELISA, plate 2, mAb 7.5 ug/ml
[8] = molecular target: HIV-1 envelope of gp160 clone AG-010.c14 (HIV-1); experiment: capture ELISA, plate 2, mAb 7.5 ug/ml
[9] = molecular target: HIV-1 envelope of gp160 clone AG-010.c11 (HIV-1); experiment: capture ELISA, plate 2, mAb 7.5 ug/ml
[10] = molecular target: HIV-1 envelope of gp160 clone B-Acute-008.c11 (HIV-1); experiment: capture ELISA, plate 2, mAb 7.5 ug/ml
[11] = molecular target: HIV-1 envelope of gp160 clone B-Acute-009-c08 (HIV-1); experiment: capture ELISA, plate 2, mAb 7.5 ug/ml
[12] = molecular target: HIV-1 envelope clone BF-002.c05 (multiclade gp160 clone panel) (HIV-1); experiment: capture ELISA, plate 2, mAb 7.5 ug/ml
[13] = molecular target: aMLV envelope (from lysed pseudovirus); experiment: antigen capture ELISA, mAb 7.5 ug/ml, plate 2
[14] = molecular target: BG505 envelope (gp120 monomer released from lysed pseudovirus) (HIV-1); experiment: antigen capture ELISA, mAb 7.5 ug/ml, plate 2
[15] = molecular target: aMLV envelope (from lysed pseudovirus); experiment: antigen capture ELISA, mAb 0.3 ug/ml, plate 2
[16] = molecular target: BG505 envelope (gp120 monomer released from lysed pseudovirus) (HIV-1); experiment: antigen capture ELISA, mAb 0.3 ug/ml, plate 2
[17] = molecular target: aMLV envelope (from lysed pseudovirus); experiment: antigen capture ELISA, mAb 0.8 ug/ml, plate 2
[18] = molecular target: BG505 envelope (gp120 monomer released from lysed pseudovirus) (HIV-1); experiment: antigen capture ELISA, mAb 0.8 ug/ml, plate 2
[19] = molecular target: HIV-1 envelope of gp160 clone B-Chronic-014.c02 (HIV-1); experiment: capture ELISA, plate 1, mAb 7.5 ug/ml
[20] = molecular target: HIV-1 envelope clone F1-002.c16 (multiclade gp160 clone panel) (HIV-1); experiment: capture ELISA, plate 1, mAb 7.5 ug/ml
[21] = molecular target: HIV-1 envelope of gp160 clone B-Acute-010.c09 (HIV-1); experiment: capture ELISA, plate 1, mAb 7.5 ug/ml
[22] = molecular target: HIV-1 envelope clone BF-002.c08 (multiclade gp160 clone panel) (HIV-1); experiment: capture ELISA, plate 1, mAb 7.5 ug/ml
[23] = molecular target: HIV-1 JRFL envelope (HIV-1); experiment: capture ELISA, plate 1, mAb 7.5 ug/ml
[24] = molecular target: HIV-1 envelope clone G-011.c02 (multiclade gp160 clone panel) (HIV-1); experiment: capture ELISA, plate 1, mAb 7.5 ug/ml
[25] = molecular target: HIV-1 envelope clone F1-002.c11 (multiclade gp160 clone panel) (HIV-1); experiment: capture ELISA, plate 1, mAb 7.5 ug/ml
[26] = molecular target: HIV-1 envelope clone G-011.c05 (multiclade gp160 clone panel) (HIV-1); experiment: capture ELISA, plate 1, mAb 7.5 ug/ml
[27] = molecular target: HIV-1 envelope of gp160 clone B-Acute-010.c08 (HIV-1); experiment: capture ELISA, plate 1, mAb 7.5 ug/ml
[28] = molecular target: HIV-1 envelope of gp160 clone AG-010.c14 (HIV-1); experiment: capture ELISA, plate 1, mAb 7.5 ug/ml
[29] = molecular target: HIV-1 envelope of gp160 clone AG-010.c11 (HIV-1); experiment: capture ELISA, plate 1, mAb 7.5 ug/ml
[30] = molecular target: HIV-1 JRCSF envelope (HIV-1) (UniProt P20871); experiment: capture ELISA, plate 1, mAb 7.5 ug/ml
[31] = molecular target: HIV-1 envelope of gp160 clone B-Acute-008.c11 (HIV-1); experiment: capture ELISA, plate 1, mAb 7.5 ug/ml
[32] = molecular target: HIV-1 16055 envelope (HIV-1); experiment: capture ELISA, plate 1, mAb 7.5 ug/ml
[33] = molecular target: HIV-1 envelope of gp160 clone B-Acute-009-c08 (HIV-1); experiment: capture ELISA, plate 1, mAb 7.5 ug/ml
[34] = molecular target: HIV-1 envelope clone BF-002.c05 (multiclade gp160 clone panel) (HIV-1); experiment: capture ELISA, plate 1, mAb 7.5 ug/ml
[35] = molecular target: HIV-1 JRFL envelope (HIV-1); experiment: capture ELISA, plate 1, mAb 2.5 ug/ml
[36] = molecular target: HIV-1 envelope clone G-011.c05 (multiclade gp160 clone panel) (HIV-1); experiment: capture ELISA, plate 1, mAb 2.5 ug/ml
[37] = molecular target: HIV-1 envelope of gp160 clone B-Acute-008.c11 (HIV-1); experiment: capture ELISA, plate 1, mAb 2.5 ug/ml
[38] = molecular target: HIV-1 envelope clone BF-002.c05 (multiclade gp160 clone panel) (HIV-1); experiment: capture ELISA, plate 1, mAb 2.5 ug/ml

Substance | ELISA OD [1] [OD] | ELISA OD [2] [OD] | ELISA OD [5] [OD] | ELISA OD [7] [OD] | ELISA OD [8] [OD] | ELISA OD [9] [OD] | ELISA OD [10] [OD] | ELISA OD [11] [OD] | ELISA OD [13] | ELISA OD [14] [OD] | ELISA OD [15] | ELISA OD [16] [OD] | ELISA OD [17] | ELISA OD [18] [OD] | ELISA OD [19] [OD] | ELISA OD [21] [OD] | ELISA OD [24] [OD] | ELISA OD [26] [OD] | ELISA OD [27] [OD] | ELISA OD [28] [OD] | also measured
PGT151 (antibody) | 0.462 | 0.121 | 0.197 | 0.125 | 0.191 | 0.116 | 0.209 | 0.191 | 0.114 OD and 0.116 OD | 0.094 | 0.053 OD and 0.128 OD | 0.057 | 0.054 OD and 0.078 OD | 0.054 | 0.525 | 0.081 | 0.121 | 0.089 | 0.206 | 0.148 | ELISA OD [3]: 0.102 OD; ELISA OD [4]: 0.138 OD and 0.149 OD; ELISA OD [6]: 0.135 OD; ELISA OD [12]: 0.253 OD; ELISA OD [20]: 0.105 OD; ELISA OD [22]: 0.087 OD; ELISA OD [23]: 0.088 OD and 0.08 OD; ELISA OD [25]: 0.087 OD; ELISA OD [29]: 0.081 OD; ELISA OD [30]: 0.073 OD and 0.086 OD; ELISA OD [31]: 0.256 OD; ELISA OD [32]: 0.08 OD and 0.078 OD; ELISA OD [33]: 0.11 OD; ELISA OD [34]: 0.286 OD; ELISA OD [35]: 0.078 OD and 0.06 OD; ELISA OD [36]: 0.073 OD; ELISA OD [37]: 0.152 OD; ELISA OD [38]: 0.148 OD
PGV04 (antibody) | 4 | 3.44 | 1.25 | 0.719 | 1.68 | 0.22 | 0.109 | 0.459 | 0.123 OD | 1.37 | 0.095 OD and 0.115 OD | 0.45 | 0.085 OD | 0.745 | 4 | 2.87 | 0.865 | 0.451 | 2.65 | 0.293 | ELISA OD [3]: 3.2 OD; ELISA OD [6]: 0.506 OD; ELISA OD [12]: 4 OD; ELISA OD [20]: 0.54 OD; ELISA OD [22]: 2.72 OD; ELISA OD [25]: 0.28 OD; ELISA OD [29]: 0.184 OD; ELISA OD [30]: 2.15 OD and 2.33 OD; ELISA OD [31]: 0.07 OD; ELISA OD [33]: 0.237 OD; ELISA OD [34]: 4 OD; ELISA OD [36]: 0.256 OD; ELISA OD [37]: 0.059 OD; ELISA OD [38]: 4 OD
PGT145 (antibody) | 0.092 | 0.11 | 0.112 | 0.138 | 0.094 | 0.146 | 0.148 | 0.15 | 0.108 OD and 0.079 OD | 0.104 | 0.065 OD and 0.157 OD | 0.066 | 0.062 OD | 0.066 | 0.106 | 0.084 | 0.129 | 0.133 | 0.179 | 0.07 | ELISA OD [3]: 0.074 OD; ELISA OD [4]: 0.093 OD and 0.082 OD; ELISA OD [6]: 0.099 OD; ELISA OD [12]: 0.649 OD; ELISA OD [23]: 0.076 OD and 0.075 OD; ELISA OD [29]: 0.082 OD; ELISA OD [30]: 0.071 OD and 0.084 OD; ELISA OD [31]: 0.146 OD; ELISA OD [32]: 0.085 OD and 0.077 OD; ELISA OD [33]: 0.109 OD; ELISA OD [35]: 0.06 OD; ELISA OD [36]: 0.087 OD; ELISA OD [37]: 0.101 OD; ELISA OD [38]: 0.22 OD
PG16 (antibody) | 0.513 | 0.244 | 0.097 | 0.153 | 0.8 | 0.302 | 0.215 | 0.092 | 0.102 OD and 0.081 OD | 0.12 | 0.096 OD and 0.103 OD | 0.067 | 0.072 OD and 0.064 OD | 0.165 | 0.476 | 0.282 | 0.069 | 0.158 | 0.272 | 0.817 | ELISA OD [3]: 0.164 OD; ELISA OD [6]: 0.154 OD; ELISA OD [12]: 0.764 OD; ELISA OD [20]: 0.244 OD; ELISA OD [22]: 0.168 OD; ELISA OD [23]: 0.173 OD and 0.159 OD; ELISA OD [25]: 0.168 OD; ELISA OD [29]: 0.332 OD; ELISA OD [30]: 0.248 OD and 0.287 OD; ELISA OD [31]: 0.205 OD; ELISA OD [32]: 0.215 OD and 0.16 OD; ELISA OD [33]: 0.083 OD; ELISA OD [34]: 0.971 OD; ELISA OD [35]: 0.085 OD and 0.088 OD; ELISA OD [36]: 0.126 OD; ELISA OD [37]: 0.189 OD; ELISA OD [38]: 0.639 OD
PG9 (antibody) | 1.48 | 0.151 | 0.099 | 0.235 | 0.852 | 0.65 | 0.204 | 0.114 | 0.079 OD and 0.071 OD | 0.428 | 0.057 OD and 0.063 OD | 0.162 | 0.056 OD and 0.051 OD | 0.261 | 2.35 | 0.199 | 0.108 | 0.37 | 0.547 | 1.22 | ELISA OD [4]: 0.07 OD and 0.054 OD; ELISA OD [23]: 0.072 OD and 0.11 OD; ELISA OD [29]: 0.891 OD; ELISA OD [30]: 0.411 OD and 0.454 OD; ELISA OD [31]: 0.363 OD; ELISA OD [32]: 0.519 OD and 0.367 OD; ELISA OD [33]: 0.115 OD; ELISA OD [35]: 0.068 OD and 0.077 OD; ELISA OD [36]: 0.308 OD; ELISA OD [37]: 0.281 OD
